Laboratory results from US20090047240A1.

Columns and labels:
[1] = target: TLR9 expressed in HEK293 cells (UniProt Q9NR96); assay: cell-based or functional assay
[2] = target: TLR7 expressed in HEK293 cells (UniProt Q9NYK1); assay: cell-based or functional assay
TLR7 expressed in HEK293 cells, sequence (Q9NYK1 27-1049 limits assumed): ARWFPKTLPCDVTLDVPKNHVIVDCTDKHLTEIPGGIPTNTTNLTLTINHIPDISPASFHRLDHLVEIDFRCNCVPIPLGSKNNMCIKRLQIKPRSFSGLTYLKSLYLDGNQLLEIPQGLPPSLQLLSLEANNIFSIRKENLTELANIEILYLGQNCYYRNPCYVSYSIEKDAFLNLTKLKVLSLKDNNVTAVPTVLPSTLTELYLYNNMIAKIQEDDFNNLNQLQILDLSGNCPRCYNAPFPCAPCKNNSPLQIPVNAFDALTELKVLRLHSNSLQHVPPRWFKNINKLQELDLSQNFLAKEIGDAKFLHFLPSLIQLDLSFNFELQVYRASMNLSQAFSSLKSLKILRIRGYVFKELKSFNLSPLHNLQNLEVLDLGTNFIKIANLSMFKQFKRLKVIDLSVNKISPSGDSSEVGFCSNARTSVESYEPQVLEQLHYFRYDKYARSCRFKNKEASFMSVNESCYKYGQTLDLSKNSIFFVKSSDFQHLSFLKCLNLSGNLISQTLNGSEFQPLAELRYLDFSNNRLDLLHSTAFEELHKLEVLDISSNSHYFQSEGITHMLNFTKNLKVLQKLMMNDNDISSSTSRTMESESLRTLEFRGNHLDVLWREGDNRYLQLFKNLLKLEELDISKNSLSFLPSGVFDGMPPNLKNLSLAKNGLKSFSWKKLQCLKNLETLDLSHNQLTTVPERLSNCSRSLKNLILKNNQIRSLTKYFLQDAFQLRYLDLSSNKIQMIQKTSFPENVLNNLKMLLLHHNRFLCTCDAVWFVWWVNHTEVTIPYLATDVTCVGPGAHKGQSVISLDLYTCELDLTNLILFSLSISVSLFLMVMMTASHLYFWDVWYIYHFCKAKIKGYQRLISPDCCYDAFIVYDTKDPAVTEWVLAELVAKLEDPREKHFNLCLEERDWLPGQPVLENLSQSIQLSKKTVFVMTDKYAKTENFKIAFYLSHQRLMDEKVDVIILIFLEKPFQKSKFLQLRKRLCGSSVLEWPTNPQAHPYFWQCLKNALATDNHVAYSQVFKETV

TLR9 expressed in HEK293 cells, sequence (Q9NR96 26-1032 limits assumed): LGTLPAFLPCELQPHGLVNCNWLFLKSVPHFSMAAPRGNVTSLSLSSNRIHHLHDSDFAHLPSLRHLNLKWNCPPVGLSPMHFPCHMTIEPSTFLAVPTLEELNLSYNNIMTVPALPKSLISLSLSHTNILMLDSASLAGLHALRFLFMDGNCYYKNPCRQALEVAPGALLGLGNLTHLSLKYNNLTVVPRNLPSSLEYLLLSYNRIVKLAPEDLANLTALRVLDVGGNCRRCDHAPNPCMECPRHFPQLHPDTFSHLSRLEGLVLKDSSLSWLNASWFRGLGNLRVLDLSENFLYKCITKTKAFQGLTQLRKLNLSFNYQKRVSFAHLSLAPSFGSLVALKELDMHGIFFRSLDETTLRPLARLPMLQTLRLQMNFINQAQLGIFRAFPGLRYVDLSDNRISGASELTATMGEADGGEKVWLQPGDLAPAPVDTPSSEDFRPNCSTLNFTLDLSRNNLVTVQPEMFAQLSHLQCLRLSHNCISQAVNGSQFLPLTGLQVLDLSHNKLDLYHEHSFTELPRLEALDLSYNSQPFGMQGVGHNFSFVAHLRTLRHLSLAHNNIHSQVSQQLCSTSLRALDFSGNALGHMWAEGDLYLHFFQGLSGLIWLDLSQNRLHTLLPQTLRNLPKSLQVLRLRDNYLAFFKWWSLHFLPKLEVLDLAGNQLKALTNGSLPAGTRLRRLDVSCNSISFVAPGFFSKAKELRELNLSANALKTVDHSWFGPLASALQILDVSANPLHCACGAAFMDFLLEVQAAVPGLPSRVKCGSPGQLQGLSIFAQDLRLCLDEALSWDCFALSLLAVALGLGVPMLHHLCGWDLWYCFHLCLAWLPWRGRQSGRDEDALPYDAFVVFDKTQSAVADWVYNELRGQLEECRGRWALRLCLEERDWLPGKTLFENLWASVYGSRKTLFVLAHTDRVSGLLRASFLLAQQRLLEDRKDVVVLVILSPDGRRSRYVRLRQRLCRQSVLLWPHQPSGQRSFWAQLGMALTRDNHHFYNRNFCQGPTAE

NF-κB activation (luciferase reporter) in HEK293 cells expressing TLR9, stimulated with CpG DNA (fold reduction) [1]: 5 to 10
NF-κB activation (luciferase reporter) in HEK293 cells expressing TLR7 and TLR4, stimulated with R848 (fold reduction) [2]: 2
Substance: recombinant human Cpn10 with an N-terminal Alanine residue (from UniProt P61604 2-102)
